Assay results reported in article PMC12212259 (2025).
Where two headings read alike, the source gives them in different places.

What was measured:
Assay in all cases: SPR
Nb6E-biotin [1] = molecular target: T1, Nb6E-biotin (biotin at the C terminus (sortagging))
Nb6E-biotin [2] = molecular target: T1, Nb6E-biotin; remark: listed apart in the source
Nb6E-biotin [3] = molecular target: T1, Nb6E-biotin; remark: listed apart in the source
Nb127–biotin = Nb127–biotin (biotin at the C terminus (sortagging))
Sequence of Nb127–biotin (biotin at the C terminus (sortagging)) (VHH, as listed by the source): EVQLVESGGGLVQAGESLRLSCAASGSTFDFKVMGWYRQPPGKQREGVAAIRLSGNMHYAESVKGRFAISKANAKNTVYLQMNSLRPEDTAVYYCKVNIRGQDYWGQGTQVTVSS

T1 sequence (VHH, as listed by the source): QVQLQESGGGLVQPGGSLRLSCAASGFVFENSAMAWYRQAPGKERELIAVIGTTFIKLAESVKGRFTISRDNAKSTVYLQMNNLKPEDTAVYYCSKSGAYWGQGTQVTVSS

With QADQEAKWLARQIS [6E-W8] the Kd (Nb6E-biotin [1]) was 9.2 nM.

Work on QADQEAWELARQIS [6E-W7] yielded a Kd (Nb6E-biotin [1]) of 17.6 nM.

Binder QADWEAKELARQIS [6E-W4] has a Kd (Nb6E-biotin [1]) of 15.2 nM.

For GGGQADQEAKELARQIS [G3-6E], the Kd (Nb6E-biotin [2]) was 4.2 nM.

QADQEAKEMARQIS [6E-M9] gave a Kd (Nb6E-biotin [3]) of 78.2 nM.

Work on QADQEAKELARQIS [6E-WT peptide] yielded a Kd (Nb6E-biotin [3]) of 159 nM.

Work on SFEDFWKGED [127-tag peptide] yielded a Kd (Nb127–biotin) of 16.8 nM.
